Changes are numbered by the printed parent chain.
T1: human CD20 (human, UniProt P11836 1-297)
T1 construct: On human CD20-transfected MG87 cells, or endogenous on Daudi, RL and Raji cells; also called hCD20
T1 sequence: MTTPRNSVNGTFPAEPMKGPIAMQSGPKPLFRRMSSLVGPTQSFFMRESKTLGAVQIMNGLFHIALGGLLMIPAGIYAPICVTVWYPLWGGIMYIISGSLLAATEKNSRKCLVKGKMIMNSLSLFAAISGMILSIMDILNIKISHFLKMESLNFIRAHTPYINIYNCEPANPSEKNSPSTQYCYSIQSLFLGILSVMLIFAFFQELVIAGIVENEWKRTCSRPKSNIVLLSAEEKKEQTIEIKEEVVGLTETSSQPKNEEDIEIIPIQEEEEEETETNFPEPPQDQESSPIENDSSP

T2: mutant human CD20 #2 (N163D) (human, UniProt P11836 1-297)
T2 construct: Stably expressed on MG87 cells
T2 sequence: T1 sequence with N163D

T3: mutant human CD20 #7 (Y77F, N163D) (human, UniProt P11836 1-297)
T3 construct: Stably expressed on MG87 cells
T3 chain: T1 sequence with Y77F, N163D

T4: mutant human CD20 #1 (Y77F) (human, UniProt P11836 1-297)
T4 construct: Human residues replaced by mouse residues; stably expressed on MG87 cells
T4 sequence: T1 sequence with Y77F

T5: mutant human CD20 #4 (N166D) (human, UniProt P11836 1-297)
T5 construct: Stably expressed on MG87 cells
T5 sequence: T1 sequence with N166D

T6: mutant human CD20 #8 (Y77F, N163D, N166D) (human, UniProt P11836 1-297)
T6 construct: Stably expressed on MG87 cells
T6 chain: T1 sequence with Y77F, N163D, N166D

T7: mutant human CD20 #10 (A157V) (human, UniProt P11836 1-297)
T7 construct: Stably expressed on MG87 cells
T7 sequence: T1 sequence with A157V

B1: 2B7-7 (antibody, V domains shown)
VH: EVQLVESGGGLVQPGRSLRLSCAASGFTFRDYTMHWVRQGPGKGLEWVSGISWNSDYIGYADSVKGRFTISRDNAKNSLYLQMNSLRVEDTALYYCAKLSGTYRDYFYGVDVWGQGTTVTVSS
VL: EIVLTQSPATLSLSPGERAALSCRASQSVSNYLAWYQQKPGQAPRLLIYDASNRATGIPARFSGSGSGTDFTLTISSLEPEDFAVYYCQQRSNWPLTFGGGTKVEIR
notes: Fully human IgG, constant region not specified; also called 2B7-7N
B2: 6B9-4 (antibody, V domains shown)
VH: EEQLVESGGDLVQPGRSLRLSCAASGFTFHDYTMHWVRQAPGKGLEWVSGISWNSGSIGYADSVKGRFTISRDNAKNSLYLQMNSLRIEDTALYYCAKDPSYGSGSYYYYYGMDVWGQGTTVTVSS
VL: B1 VL with A20T, N31S, A34V, K39R, D50E, P80S, R107K
notes: Fully human IgG, constant region not specified; also called 6B9-4N
B3: 10E3-17 (antibody, V domains shown)
VH: EVQLVESGGGLVQPGRSLRLSCAASGFTFRDYAMHWVRQVPGKGLEWVSGISWNRGTIGYADSVKGRFTISRDNAKNSLFLQMNSLRADDTALYYCAKDHYYGSGSPYGMDVWGQGTTVTVSS
VL: EIVLTQSPATLALSPGERATLSCRASQSVSKYLAWYQQKPGQAPRLLIYDASKRVTGIPGRLSGSGSGTDFTLTISSLEPEDFALYYCQQSSNWPITFGQGTRVEIK
notes: Fully human IgG, constant region not specified; also called 10E3-17N
B4: 2C11-4 (antibody, V domains shown)
VH: EVQLVESGGGLVQPGRSLRLSCAASGFTFRDYAMHWVRQGPGKGLEWVSGISWNTDYIGYADSVKGRFTISRDNAKNSLYLQMNSLRPEDTALYYCAKDARYGRDNYYGMDVWGQGTTVTVSS
VL: EIVLTQSPATLSLSPGERATLSCRASQSVSRYLAWYQQKPGQAPRLLIHDASNRATGIPARFSGSGSGTDFTLTITSLEPEDFVVYYCQQRSDWPITFGQGTRLEIK
notes: Fully human IgG, constant region not specified; also called 2C11-4N
B5: 9H4-12 (antibody, V domains shown)
VH: EVQLVESGGGLVQPGRSLRLSCAASGFTFDDYAMHWVRQVPGKGLEWVSGISWNSGSIGYADSVKGRFTISRDNAKNSLYLQMNSLRAEDTALYYCAKDMGYGNYYHYGMDVWGQGTTVTVSS
VL: B4 VL with E1D, R31S, H49C, N53H, G57R, T76S, V84A, D93N
notes: Fully human IgG, constant region not specified; also called 9H4-12N
B6: 3H7-6 (antibody, V domains shown)
VH: EVQLVESGGGLVQPGRSLRLSCAASGFTFYDYAMHWVRQAPGKGLEWVSGISWNSGYIGYADSVKGRFTISRDNAKNSLYLQMNSLRAEDTALYYCAKDNSYGKFYYGLDVWGQGTTVTVSS
VL: EIVMTQSPATLSVSPGERTTLSCRASQSVSSNLAWYLQKPGQAPRLLIYGASTRATGIPARFSGSGSGTEFILTISSLQSEDFAVYYCQQYNNWPITFGQGTRLEIK
notes: Fully human IgG, constant region not specified; also called 3H7-6N
B7: 9C11-14 (antibody, V domains shown)
VH: QVQLVESGGDSVKPGGSLRLSCAASGFTFSDSYMTWIRQAPGKGLEWVSFISSSGSTIYYADSVKGRFTISRDNVKKSLYLQMNRLRAEDTAVYYCAREEPGNYVYYGMDVWGQGTTVTVSS
VL: EIVVTQSPATLSLSPGERATLSCRTSQTTTSYLAWYRQKPGQAPRLLIYDASNRAAGIPARFSGSGSGTDFTLTINSLEPEDFAVYYCQLRTNWITFGQGTRLEIK
notes: Fully human IgG, constant region not specified; also called 9C11-14N

These binders were tested against T1, human CD20 (assay: flow cytometry, hCD20-transfected MG87 cells).
Experimental: Briefly, parental MG87 and human CD20-transfected MG87 cells were incubated for 30 min at 4° C. with each of the 15 human antibodies and the two control antibodies, followed by incubation with PE-conjugated anti-human IgG antibody. Binding was assessed by flow cytometry. Fluorescence intensities were compared with binding to the parental cell line and control isotype-matched sample.

| Total Mean Fluorescent Intensity | Binder |
| --- | --- |
| 3480 | B1 |
| 2930 | B2 |
| 3070 | B3 |
| 2010 | B4 |
| 2040 | B5 |
| 3300 | B6 |
| 2750 | B7 |

What follows are binders tested against T1, human CD20 (assay: cell-based or functional assay).

| ADCC EC50 (pM), Daudi + PBMC | Binder |
| --- | --- |
| 1.99 pM | B1 |
| 4.27 pM | B2 |
| 1.2 pM | B3 |
| 1.45 pM | B4 |
| 33.8 pM | B5 |
| 11.1 pM | B6 |
| 10.2 pM | B7 |

These binders were tested against T2, mutant human CD20 #2 (N163D) (assay: FACS, mutant-hCD20 MG87 cells; 100%=best antibody).
Experimental: (§1) Briefly, approximately 1×10⁶ cells from each stably transfected cell line expressing a mutant human CD20 were collected and incubated with each anti-human antibody, at 10 μg/ml, on ice for 1 hr, followed by incubation with APC-conjugated goat anti-human IgG (Jackson Immunolabs), at 10 μg/ml, on ice for 45 min. For each antibody, binding to each mutant human CD20 was assessed by flow cytometry.

| Percent of Binding to Mutant Human CD20 | Binder |
| --- | --- |
| 40% | B1 |
| 3% | B2 |
| 1% | B3 |
| 0% | B4 |
| 0% | B5 |
| 1% | B6 |
| 83% | B7 |

Target: T3, mutant human CD20 #7 (Y77F, N163D)
Test: FACS, mutant-hCD20 MG87 cells; 100%=best antibody
Experimental: as §1

| Percent of Binding to Mutant Human CD20 | Binder |
| --- | --- |
| 2% | B1 |
| 2% | B2 |
| 1% | B3 |
| 1% | B4 |
| 2% | B5 |
| 1% | B6 |
| 96% | B7 |

Each binder was assayed against T4, mutant human CD20 #1 (Y77F) (assay: FACS, mutant-hCD20 MG87 cells; 100%=best antibody).
Experimental: as §1

| Percent of Binding to Mutant Human CD20 | Binder |
| --- | --- |
| 100% | B1 |
| 74% | B2 |
| 61% | B3 |
| 35% | B4 |
| 19% | B5 |
| 28% | B6 |
| 89% | B7 |

The binders below were run against T5, mutant human CD20 #4 (N166D) (assay: FACS, mutant-hCD20 MG87 cells; 100%=best antibody).
Experimental: as §1

| Percent of Binding to Mutant Human CD20 | Binder |
| --- | --- |
| 100% | B1 |
| 3% | B2 |
| 1% | B3 |
| 31% | B4 |
| 0% | B5 |
| 4% | B6 |
| 87% | B7 |

Target: T6, mutant human CD20 #8 (Y77F, N163D, …)
Test: FACS, mutant-hCD20 MG87 cells; 100%=best antibody
Experimental: as §1

| Percent of Binding to Mutant Human CD20 | Binder |
| --- | --- |
| 0% | B1 |
| 0% | B2 |
| 0% | B3 |
| 0% | B4 |
| 0% | B5 |
| 0% | B6 |
| 100% | B7 |

The binders below were run against T7, mutant human CD20 #10 (A157V) (assay: FACS, mutant-hCD20 MG87 cells; 100%=best antibody).
Experimental: as §1

| Percent of Binding to Mutant Human CD20 | Binder |
| --- | --- |
| 83% | B1 |
| 75% | B2 |
| 87% | B3 |
| 68% | B4 |
| 52% | B5 |
| 80% | B6 |
| 83% | B7 |

From patent US20090035322A1 (Regeneron, published 2009)
